{"source": "patent US20190352664A1", "about": "“COMPOSITIONS AND METHODS FOR CONTROLLING GENE EXPRESSION” (priority 2017, published 2019)", "molecules": {"B1": {"name": "AT4G32800.1: 5′ UTR of transcript; Integrase-type DNA-binding superfamily protein (nucleic acid)", "DNA": "ATTTCATAAATCATAGAGAGAGAGAGAGAGAGAGAGAGAGAGTTTGGAAACATTCCAAAACCAGAACTCGATATTATTTCACCAAAGAATGATAGAAACAAGAACTATCTTTTTATAAAACTCTTTACACCCCAAAAGAAAATGTCTCACTCGTTTTGCCTTATAATATTTCTTTCAACAACAACCCAAATCTACAAAAAATCCCAATAAAAAAAAACTTCAGTCTGTTTGACATTTTGTCGAACACTTGGACGGCATCACAAAAAGCTCTAAACTTTCTGACTACCA"}, "B2": {"name": "AT4G34460.1: 5′ UTR of transcript; GTP binding protein beta 1 (nucleic acid)", "DNA": "GACCCTCTTCTCTCTCTCTAGCTAGTCTCAGGTCAGAGAAGCCATCATCAACATTCAACAAGAGAGCCGTGTTTGTGTCTTGACTGATTCTTCTCTCAAGCTTTTTTAATCTCTCTCTCTTTTCCCACGTAATTCCCCCAAATCCATTCTTTCTAGGGTTCGATCTCCCTCTCTCAATCATGAACCTTCTTCTCTTCTAGACCCCACAAAGTTTCCCCCTTTTATTTGATCGGCGACGGAGAAGCCTAAGTCTGATCCCGGA"}, "B3": {"name": "AT4G37925.1: 5′ UTR of transcript; subunit NDH-M of NAD(P)H:plastoquinone dehydrogenase complex (nucleic acid)", "DNA": "ATGGTTCTGTAACCGGACAACATCTCAAAACTTGTTCTGTTTTTTTTTTTTCATTTCTTAGACAGAAAA", "modifications": "listed as DNA, chemistry not fully specified", "notes": "5′ UTR of transcript; subunit NDH-M of NAD(P)H:plastoquinone dehydrogenase complex"}, "B4": {"name": "AT4G38950.1: 5′ UTR of transcript; ATP binding microtubule motor family protein (nucleic acid)", "DNA": "AAGAACAAACAACTACCAAACTTGTAGGCAGTAGCAGGAGGAAGTGGGTGGGATTAACATTGTCATTTCTCTCTCTTTTTCTTTTACAAATCTTTCCGTTTTGTTTTCTTTTGGTTTTCCGGTGAGCACTGTTGTGTTTCCAATTCCGGCACTCTTTAGGGTTCCCTTTCAGAAGAAAACTTCACATTGTTGTTTCTCTCAACCGTGACATCTTGGATTACTACTTCTGACTACTTTCCTTTTTCATGTGCCCCAAAAGATAATAGTTACTTTTTCAAAATCTGGTTTTGTTGTTTGGGTTTGTGTCATTCATTGATAAAGTCACTAATGGAGAAGTACAAAACAATTGCAAAATTTCGAATCTGTGTTGTCATTGCTGAATTCTGTAGTGGATGTTTGCTTGCAGTTTAGAGCTTCGGAGTGCGAAGAGTGAGACACAAGAGGATTCTTTCTGGAACCGCATTATTCCCTTTAGAGGAGGAAGAAGAAGACAACTCACTCACAAGGAAAACAAAGGTTCCTCTGGTTACTCTGAAATATTCAAACCAATGGTGAGCAATTGGTAGCACTTGCTAAAGAAG"}, "B5": {"name": "AT5G11790.1: 5′ UTR of transcript; N-MYC downregulated-like 2 (nucleic acid)", "DNA": "AAACACAAAAAAACGAAGATAGCCATCGTTTTGGTGAGAGAAGAGAGAAGAGAGAAGAAGAAGGCCATGGAAAGATAATACTCTGCTTTTTTTTTAGAAATATACAGAGGAAATAAAGAGAGAGAGAAGGAG"}, "B6": {"name": "AT5G14930.1: 5′ UTR of transcript; senescence-associated gene 101 (nucleic acid)", "DNA": "TATGGACTCTCGTTCTCAGACATTTATTTCTCTCAGTCTTACAATATAAATTTTCATTCTTACCATCCATAATTTTGTATTGTCTTCTCCACAGATCTATTCCAGCTCACGCC", "modifications": "listed as DNA, chemistry not fully specified"}, "B7": {"name": "AT5G15950.1: 5′ UTR of transcript; Adenosylmethionine decarboxylase family protein (nucleic acid)", "DNA": "ACAATATCACAAACTCGTTTGCTCTTTTCATCATTACTAAATCATAAGCGGCTCTCAAGTTCTTTAGGGTTTCGAGTTTTCTCAATCTCCTACCTGATTAAGGTTAATTTCTTATCTTGGATCAATAACAAGAGAATTATAACTCCGGATTGTAATCAATATTCCTCTACATAAAAAGCGTGAATGAGATTATGATGGAATCGAAAGCTGGTAATAAGAAGTCAAGCAGCAATAGTTCCTTATGTTACGAAGCACCCCTTGGTTACAGCATTGAAGACGTTCGTCCTTTCGGTGGAATCAAGAAATTCAAATCTTCTGTCTACTCCAACTGCGCTAAGAGGCCTTCCTGAGTACTAGCCAGTTCCCTCCATAGCTTTTCAATTACAACAATCTCCTTTTCTCAAAGCTCTGGTTCCCCAAATCCTCTCGTCTTTTGTTTGCCCTCACAACAACAACAACAACGCAGAG"}, "B8": {"name": "AT5G15950.1_1: uORF of AT5G15950.1; peptide SEQ ID NO: 35 (nucleic acid)", "DNA": "ATGATGGAATCGAAAGCTGGTAATAAGAAGTCAAGCAGCAATAGTTCCTTATGTTACGAAGCACCCCTTGGTTACAGCATTGAAGACGTTCGTCCTTTCGGTGGAATCAAGAAATTCAAATCTTCTGTCTACTCCAACTGCGCTAAGAGGCCTTCCTGA"}, "B9": {"name": "AT5G49980.1: 5′ UTR of transcript; auxin F-box protein 5 (nucleic acid)", "DNA": "AAAAAATAATCCCCAAATAATGGAGACGAAGTGGAGAGAGAAAGCTCCCACTCTCTCACACCCCAAAGCTTCTTCTTCTTCTTCCTCTTCTTCCTCTTCCTCTTCTCTAATCTGAATCCAAAGCCTCTCTCTTT"}, "B10": {"name": "AT5G49980.1_1: uORF of AT5G49980.1; peptide SEQ ID NO: 36 (nucleic acid)", "DNA": "ATGGAGACGAAGTGGAGAGAGAAAGCTCCCACTCTCTCACACCCCAAAGCTTCTTCTTCTTCTTCCTCTTCTTCCTCTTCCTCTTCTCTAATCTGA", "modifications": "listed as DNA, chemistry not fully specified"}, "B11": {"name": "AT5G57460.1: 5′ UTR of transcript (nucleic acid)", "DNA": "GAAGATCTCATTTCTCTTTCTCCTTTTCTTCTCCGACGATTCTTCTCAGTTCTCAGATCTGATCGATTTCTTCATCAGATGTTTCAATCTAACCATTGAGATTGAATAGTCACCATTAGTAGAAGCTTCGAGATCAATTTCGAATCGGGATC"}, "B12": {"name": "AT5G61010.1: 5′ UTR of transcript; exocyst subunit exo70 family protein E2 (nucleic acid)", "DNA": "TCTTTCCCTTCTTCTTCCCCAATAATCTCGCTGAAACTCTCTTGCTCTTGCTTCTAAAAATCTGTTCTTTGAGACTTTGATCACACAGTTATCAAAATCATAATCTCTTCTTTCCTGGTTTTTTTTTTTTTCTTCTTCTTCTTCCCGTTTCACGGTACGTTTACTCTGTTCGATCACCGAGTGTATGATAAAATGTTTCTGTGAAATCAAATAACATATCACTTTCTAATAAACATCAAAATTTCTCCTTTTTTACAGAAACAAGAAGTTTTTTTGGGAAAGCCGTTGACTTGACTTTTTCTTTGGGGTGTTGTGTGGGAGCTTATAGTATGGTACCATAAGTGGGAGCTTATAGTTTGGGGTGTTGTGTGGGAGCTTATAGTATGAGGAAAAATGTTAGATTTGAAGAATGCTTCACTGATTTTTTACCATAAGTATGTCAACTGGATTAAGCTTAAGTAGTAATGGTTTTTACTATGTTCATGTGGGGATTTCTCTTCCTCTCTGTTTACTTCATTCCGAGATGACTTGAGATTTTTTCAAAGTATAGTTCTTGGAGTTAAGCTTACCTAGTAATCACTTTATATAACATCCCTTCGTTTACATTTGTGCTTTCACCTGGAAACACTTTAGACTTTTCTCTCTTCTGCCGTGTGTATTTAGTTGTCTAGTCAAATTTAAGTTGAGTTTAGGCTCTAGTCTTTGGTTTTGGTT"}, "B13": {"name": "AT1G30330.1: 5′ UTR of transcript; auxin response factor 6 (nucleic acid)", "DNA": "CTTCTTCTTCTGATTCTCATTTCAAATAAGAGAGAGAGAGAGAGAAGTAAGTAAAACTTTAGCAGAGAGAAGAATAAACAAATAATTATAGCACCGTCACGTCGCCGCCGTATTTCGTTACCGGAAAAAAAAAATCATTCTTCAACATAAAAATAAAAACAGTCTCTTTCTTTCTATCTTTGTCTATCTTTGATTATTCTCTGTGTACCCATGTTCTGCAACAGTTGAGCAAGTGCATGCCCCATATCTCTCTGTTTCTCATTTCCCGATCTTTGCATTAATCATATACTTCGCCTGAGATCTCGATTAAGCCAGCTTATAGAAGAAGAAACGGCACCAGCTTCTGTCGTTTTAGTTAGCTCGAGATCTGTGTTTCTTTTTTTCTTGGCTTCTGAGCTTTTGGCGGTGGTGGGTTTTTCTGGAGAAACCCAAACGACTATCAAAGTTTTGTTTTTTACAATTTTAAGTGGGAGTTATGAGTGGGGTGGATTAAGTAAGTTACAAGTATGAAGGAGTTGAAGATTCGAAGAAGCGGTTTTGAAGTCGGCGAGACCAAGATTGCGAGCTTATTTGGCTGATGATTTATTTCAGGGAAGAAGAAATAAATCTGTTTTTTTTAGGGTTTTTAGATTTGGTTGGTGAATGGGTGGGAGGTGGAGGGAAACAGTTAAAAAAGTTATGCTTTTAGTGTCTCTTCTTCATAATTACATTTGGGCATCTTGAAATCTTTGGATCTTTGAAGAAACAAAGTTGTGTTTTTTTTTTTGTTCTTTGTTGTTTGCTTTTTAAGTTAGAATAAAAA"}, "B14": {"name": "AT5G61010.1_3: uORF of AT5G61010.1; peptide SEQ ID NO: 38 (nucleic acid)", "DNA": "ATGTCAACTGGATTAAGCTTAAGTAGTAATGGTTTTTACTATGTTCATGTGGGGATTTCTCTTCCTCTCTGTTTACTTCATTCCGAGATGACTTGA", "modifications": "listed as DNA, chemistry not fully specified"}, "B15": {"name": "AT1G12580.1: 5′ UTR of transcript; phosphoenolpyruvate carboxylase-related kinase 1 (nucleic acid)", "DNA": "GAGAGAGGACTGGGTCTGGTCTCTTCGCTGCAACCTATAGCTGTTGTTTGCTCTTCGACGGGATTCTCACTACTCTTTTGCCAAAAAAAAGAGATCGGAGGTTCCGAAGGTGAATGCAGCTTGCGATTTCATAGAAAAGAAGATTCGTTTGCTGGATTAGGCTTATTTGTGTATCATAGCTTTGAGGTTTTAACTGAGATTTATTGATAGTGGAACTTAGGTTTTCGAGAGGTGTGAACAGTTGGGTAT"}}, "test_system": "Arabidopsis", "assay": "Ribo-seq and RNA-seq global translatome profiling (translational efficiency TE, mORF/uORF ribo-shift) upon elf18 treatment", "format": "in vivo", "set-up": "key to score (Ribo-shift): Up: ribo-shift up (i.e., increased mORF/uORF ratio); Down: ribo-shift down (i.e., decreased mORF/uORF ratio)", "conditions": "elf18 vs Mock; for score (TE change): translational efficiency fold change, listed as shows 5′ UTR of the transcript; for score (Ribo-shift): shift of mORF/uORF ratio, per uORF", "data": [{"molecule": "B1", "values": [{"measurement": "score (TE change)", "result": "TEdown (389 genes displayed decreased TEfc (|z|≥1.5))"}]}, {"molecule": "B2", "values": [{"measurement": "score (TE change)", "result": "TEdown (389 genes displayed decreased TEfc (|z|≥1.5))"}]}, {"molecule": "B3", "values": [{"measurement": "score (TE change)", "result": "TEup (448 had increased TEfc)"}]}, {"molecule": "B4", "values": [{"measurement": "score (TE change)", "result": "TEdown (389 genes displayed decreased TEfc (|z|≥1.5))"}]}, {"molecule": "B5", "values": [{"measurement": "score (TE change)", "result": "TEdown (389 genes displayed decreased TEfc (|z|≥1.5))"}]}, {"molecule": "B6", "values": [{"measurement": "score (TE change)", "result": "TEdown (389 genes displayed decreased TEfc (|z|≥1.5))"}]}, {"molecule": "B7", "values": [{"measurement": "score (TE change)", "result": "TEdown (389 genes displayed decreased TEfc (|z|≥1.5))"}]}, {"molecule": "B8", "values": [{"measurement": "score (Ribo-shift)", "result": "Down"}]}, {"molecule": "B9", "values": [{"measurement": "score (TE change)", "result": "TEdown (389 genes displayed decreased TEfc (|z|≥1.5))"}]}, {"molecule": "B10", "values": [{"measurement": "score (Ribo-shift)", "result": "Down"}]}, {"molecule": "B11", "values": [{"measurement": "score (TE change)", "result": "TEup (448 had increased TEfc)"}]}, {"molecule": "B12", "values": [{"measurement": "score (TE change)", "result": "TEdown (389 genes displayed decreased TEfc (|z|≥1.5))"}]}, {"molecule": "B13", "values": [{"measurement": "score (TE change)", "result": "TEdown (389 genes displayed decreased TEfc (|z|≥1.5))"}]}, {"molecule": "B14", "values": [{"measurement": "score (Ribo-shift)", "result": "Down"}]}, {"molecule": "B15", "values": [{"measurement": "score (TE change)", "result": "TEup (448 had increased TEfc)"}]}]}
